# Experiment: soluble on expression in E. coli; label from the status in PepcDB or PDB records
row,Sequence,soluble on expression in E. coli
1,MGSDKIHHHHHHMQSPIPVLSMRKLYLGASDRQQFIADLGRAARDVGFFYLEDHGISLAEQVKVLDTAKSFFALSDAEKKQVQMIHSPHFRGYSANYSELTAGRPDRREQFDIMDELPALSASAIHHEWQKLIGPNQWPRQLPAIKSQLLSWQDKLTEVSLQLLAALCESLEQPADALAETISNGPYRHTKLIKYPGSPEASGQGVGAHKDPGYLTLVLQDENSGLEVEYEQQWYKVAPRPGAFVVNIGELLELASNGYLKATNHRVSSPKTGVTRYSSAFFMAAQLNASVPVLKLPSHLAKHAKGPTSDPGNPLLHNVGENVMKGRKRSHPDVSARFYASEEKCSSC,not soluble
2,MGSDKIHHHHHHMEILSVGEKIKRARIYKRLTLKDICDDKVSVSKMSCIENGKITPDNEILEFVAKKLNVALDYLKYDVKDQFQSNLDNLKDIEEGKKDEYLRYNVYYAEQYEYYDIAFQFMHELFNLYVNKNKLDIVQSLTSEYYDICRKVTDCDNRSMYNLDIGKYLLASREYRQAINYYSRVRKELKTGFSENKKRIKMLIESYYYETLSYILCEDYDNAYELEKELLELIEYVDTDNQHAKIYSVMMFLCLKKNIDQFDYYKEKIENYCDINSEIKARVMYVCALKMINDEKVEEAKGYIAKALEQFQGKIENKYIPFIVELVNEVSRRNNLERYRGICDLILDYSIGIENSVLMERCYYLKSRIFKASNDLESYEMYMNLALDLLIKSGNEDDIYTRYMEMGNMYSTLGNVKDALRYFNLAINMSNKM,not soluble
3,MAHHHHHHMTELVPEAEVTFNCGSPSFPYVRVYRCFKTTNSGMLYRLEDDKGRWAFYNDTPLTVFNVYVKFNADSVVTSDTDVALEMTQGEWDYWATTVVLPGHTQRFVEGTISSFLLNFASEGELAKDVTFVNGTPTVGYDRVYRCFKQNANGMLFRLVKVERPGNECVWNFYNDSRELSVEVELTLIEKDSAKPLGDTQVIPPPDGVGVALYKIVVPPLKTVPFLRGHPRFSKQSYVAKSMYDENMLDASEITFENGQPDRAVIDYPRTKVFRGFNNNGNGLAFLLVDPEEKKWAFYNDTTNYNVTATVRFAAGSVYKAAANTRVEVDPAVEGGTVCTITVMPLATELFITEGNPEQYQISLSAECSTGPKPEENPDYQNGQPDTKVMLRWEKVYRCFKNRGNGLLFRLVGDNDRRWGFYNDTTDFIFTVTVSFENGETVKTLGNTSVSEDPELGKVFTLEVAPLSTEVFVFGDLSGYKTRFAARSVRCA,not soluble
4,MGSDKIHHHHHHMMNDRDERWDRIAGKLDTLLDRFDRFLDGHIPPPPPDGRLFERHLAFRWRRTGEGGAFLPVEHPHLPDLDDLMGIDLVRDELVRNTGQFVVGYPANNVLLWGERGTGKSTCVKGLLRRFSEEGLRLVEVLRDDLCTLPAIIAPLRKMPQRFILFCDDLSFGEGEGGYRELKVLLEGGIEERPSNILFYATSNRRHLLPERMEDNLGGEIHPEEAVSEKLSLADRFGLNLSFYSFDQDTYLAIVARYAEKFSLPMGGEALRREALQWAIFKGSRSGRSARQFVDDLAGRLRVALPAEK,not soluble
5,MGSDKIHHHHHHMRKKNYYLVSDGKLRRHENTIYFENEDGKRPIPINSIYAIYALGSLSITSKAISLLAKEGVCIHFFNRYGYYIGSFYPRESLVSGEVVLRQAEHHLDSEKRLHLARAFVEGAILNMARVLKKAEQDDSDVIASLQHLSSAKSIVELMGAEAAARNAYYTKFDEILKNFEFGKRSRMPPENEVNAMISFGNSLLYSAVLSEIYHTQLNPAISYLHEPSERRFSLALDIAELFKPVIVDRLIFYLVNNGIVTESDFDSRLGGILLSEEGKKKFVRHFNERLEKTVKHRKLNRKVSYQRLIRLECYKLVKHFTAVEKYSPFVMWW,not soluble
6,MAHHHHHHMNEDAMKILNKCSGEKKKGEDLNSCNLLEYYKTKYSSIDIEKAKLILKEQFLIPDFREKQLECLNSIKRFEHVLNIMPTGGGKSLIYQVLPLIIEGISIVISPLISLIQDQIISLRNKKIVAETINSSLNKKENERILDILKSQDLGNLKVLYITPETATSGYFIDILYELYINKKISLISIDEVHCISTWGSDFRKSYRNLNKILDICPYVRTYCCTATATKFVEKDIIRNLNFYIFNKDCDNNINNNNINNNNNIHNNNKYDDHNNNCKVLNIVRTSFNRPNLKYIIIYSDLIKDEKKNSVCDIINEKRNKGKIGIIYCFKRNTCDEISKYLREKGIQALSYHAGLTNNTRKRIQQKWISGKTNILVATIAFGMGIDRKDVSFIIHYNLPKSIENYYQESGRCGRSGHISFCYLFYSKEDVEKLSYIIKTSFAHLDMHDVNIEKKYEKEIYNLECVHNLCINEKCIRSQILSYFGETYPNKNLQTNNTSDHNKQTYKNQTHVEKYNFDTANMYHPSDQNKDNLTDEHFCCSFCYDTKGSRIKIQKVINLYENKKGSNISQFYSKGETHEYNYLYTNNGKHKLYDDDTYYSPSGEEPREKRSTNYYNKYGDKYGDKYDDKYDDKYDEKYDDKYGDRKLQEGIYKLNNKKIKGYIPFQSASSIIPKQIRDKGIIEVMKELEKREEELNEKTKNDQEKHKVNKMNLFKSNSMNVKRKHVFSSFKIPRKI,not soluble
7,MIENAKENSQRVELKDRIIETASEAFTTHGIKSITMDDIAASLGISKRTLYEVFQDKESLLTQCILKRQEEMNAFLAETLANSKNVLEVILVCYQRSIETFHRTNKRFFEDIKKYPKVHSLLKNYRERDSDSTIEFFKMGIKQGIFRDDVNFAIVNLLVHEQLDLLMNTDICNKYSFLEVYEAIMFTYIRGISTEKGAKVLEDFITEYRKQRIH,not soluble
8,MGSEKMIEICIDMEEGEPLGATPNDKLVITKIQAGTISEGKLRIGDQVKKVNGQNCKDCNDFFRALRFAAPCAKITVNRDEKKAEELEARVHIPEDRAKIIQRREGYVYELATLVWVQNGPKLGLGIKHFQNRVLVSRVDPGSLAEKCLVLGDHLCDVDGIPVSDKDVARDLLVKNIQEKGKVTFVVERPDSIDAKQWAKQALATNLMQPPSVQMNEDVKGIASQYRQALPGLKPPAKSAMSTGPNARRVSIIEQTQTHEIGHDHEGKALRKVK,soluble
9,MGSDKIHHHHHHMDFQEKIEELRKIIKDNIEPLITSDYVHLDNPYHGNIGDILIWEGERQFLSSIKYKCLQSSSNSWCENYLHPETVILFNGGGNFGDLYRECQDFRLRVIEQFPNNRIIMFPQSIWYEDESLIAKDAAVMARHNDLTLCARDKWSYNFLKEHFGKNKILLVPDMAFYISDEYLNKYRECVFWGQKLYLRRIDKEMDFSTILDDLRGFDIRDWPSLERRPICLLILRIMKRAAYYLQKITCLTVLQRFVNRLADEYAIRIVRPYLLKRGCDFISPYSEVITTRLHGLILSILFHKPVYYINNTTGKLSAYVDTWHLQDILEVSPYVDKILEKHVD,not soluble
10,MNNPVVLDSKTELNEQTAQDVRLQLRQDADVQRIYNAVDIKDQLELIELGKEPSMEISRFADQILHTMSLSKIEDSGELLKQLGKIMDRFDSKDFAEEKSGFFSRMFKKADKMIEQIFSKYQTMGREIDKVYVEITKYQDEMKKSIGTLDGLYEQNLKYYLDLEKYVVAGEMLLERLNTELVPMYEERVRNNDQLAGIELESLKNSVEILEQRIDDLEKARMVALLTAPQIRMIQRGNNKLIGKINTAFITTIPIFKNGIIQAVNAKRQKLVADSMAELDRRTNELLKKNAQNIATQSVEVARLSGSSSIKMETLEETWNIISRGMQETQQIEEQNKREREESRKRMATLTENIKKELQG,not soluble
11,MGSDKIHHHHHHMSNIKVLIQASSRSWAGGRDICMGLVNGEIAIVRTIKRALTAFPEAQFCLVAPEFDRGGELKGIVDEIADKRLQAFYGFDESPLSRMVAASSELKDDDFIVRVDGIHFCFDTNLSQQMVSLAQKNNLDCIKLPADFPVHFSSEVFRVGALRELVKILDKPELAKFHVHPKTYFELNRYDYKFEHLGSLPQYSDDYLRECRQLAQAIYEIPRQEVNSHRIASGDRLGYHYQLALKYLKSSMKVLDIACADGYGVRMMSTSLATVHGADLDPESVAYAKAHSSQKNVAFFVEDITDMSFDDDSYDAVTSFETLEHVPEEACLKELQRIIKPGGMLVLSTPQNSYGHIPVNSCHIVEYSLDYLLNLVGQYFHIVKVIGIKAGIIHDDADPYGTNTVLVCIKPIR,not soluble

# From the DeepSol protein solubility set
